Numbering of substitutions follows the chain as printed.
T1: CD123 Protein, His Tag, Acro Biosciences Cat. No. ILA-H52H6 (Homo sapiens (Human), UniProt P26951 19-305)
T1 construct: Bought protein; not shown: His tag
T1 sequence: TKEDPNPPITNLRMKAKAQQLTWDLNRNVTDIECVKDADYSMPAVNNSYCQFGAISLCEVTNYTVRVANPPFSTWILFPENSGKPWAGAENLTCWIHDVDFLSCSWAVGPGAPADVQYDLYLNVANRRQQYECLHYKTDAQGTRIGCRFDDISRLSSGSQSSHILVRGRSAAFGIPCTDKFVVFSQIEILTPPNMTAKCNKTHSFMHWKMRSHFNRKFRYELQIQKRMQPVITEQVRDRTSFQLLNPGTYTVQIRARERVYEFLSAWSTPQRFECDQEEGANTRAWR

B1: MYT1414 (antibody, V domains shown)
VH: QVQLVQSGAEVKKPGASVKMSCKASHYTFTDYYMKWVKQAPGQGLEWIGDIIPSNGATFYNQKFKGKATLTVDRSISTAYMHLNRLRSDDTAVYYCTRSHLLRASWFAYWGQGTLVTVSS
VL: DFVMTQSPDSLAVSLGERATINCKSSQSLLNSGNQKNYLTWYLQKPGQPPKLLIYWASTRESGVPDRFSGSGSGTDFTLTISSLQAEDVAVYYCQNDYSYPYTFGQGTKLEIK
notes: IgG
B2: MYT1415 (antibody, V domains shown)
VH: B1 VH with H26G, Y27H
VL: B1 VL
notes: IgG
B3: MYT1419 (antibody, V domains shown)
VH: B1 VH with H26G, D31H
VL: B1 VL
notes: IgG
B4: MYT1428 (antibody, V domains shown)
VH: B1 VH with H26G, S54H
VL: B1 VL
notes: IgG
B5: MYT1416 (antibody, V domains shown)
VH: B1 VH with H26G, T28H
VL: B1 VL
notes: IgG
B6: MYT1420 (antibody, V domains shown)
VH: B1 VH with H26G, Y32H
VL: B1 VL
notes: IgG
B7: MYT1421 (antibody, V domains shown)
VH: B1 VH with H26G, Y33H
VL: B1 VL
notes: IgG
B8: MYT1418 (antibody, V domains shown)
VH: B1 VH with H26G, T30H
VL: B1 VL
notes: IgG
B9: MYT1423 (antibody, V domains shown)
VH: B1 VH with H26G, K35H
VL: B1 VL
notes: IgG
B10: MYT1426 (antibody, V domains shown)
VH: B1 VH with H26G, I52H
VL: B1 VL
notes: IgG
B11: MYT1422 (antibody, V domains shown)
VH: B1 VH with H26G, M34H
VL: B1 VL
notes: IgG
B12: MYT2776 (antibody, V domains shown)
VH: QVQLVQSGAEVKKPGASVKVSCKASGYIFTSSIMHWVRQAPGQGLEWIGYIKPYNDGTKYNEKFKGRATLTSDRSTSTAYMELSSLRSEDTAVYYCAREGGNDYYDTMDYWGQGTLVTVSS
VL: DIQMTQSPSSLSASVGDRVTITCRASHDINSYLSWFQQKPGKAPKTLIYRVNRLVDGVPSRFSGSGSGNDYTLTISSLQPEDFATYYCLQYDAFPYTFGQGTKVEIK
notes: IgG
B13: MYT2786 (antibody, V domains shown)
VH: B12 VH
VL: B12 VL with H27Q, N52H
notes: IgG
B14: MYT2783 (antibody, V domains shown)
VH: B12 VH
VL: B12 VL with H27Q, S34H
notes: IgG
B15: MYT2799 (antibody, V domains shown)
VH: B12 VH
VL: B12 VL with H27Q, T97H
notes: IgG
B16: MYT2778 (antibody, V domains shown)
VH: B12 VH
VL: B12 VL with H27Q, I29H
notes: IgG
B17: MYT2777 (antibody, V domains shown)
VH: B12 VH
VL: B12 VL with H27Q, D28H
notes: IgG
B18: MYT2790 (antibody, V domains shown)
VH: B12 VH
VL: B12 VL with H27Q, D56H
notes: IgG
B19: MYT2792 (antibody, V domains shown)
VH: B12 VH
VL: B12 VL with H27Q, Q90H
notes: IgG
B20: MYT2782 (antibody, V domains shown)
VH: B12 VH
VL: B12 VL with H27Q, L33H
notes: IgG
B21: MYT2797 (antibody, V domains shown)
VH: B12 VH
VL: B12 VL with H27Q, P95H
notes: IgG
B22: MYT2784 (antibody, V domains shown)
VH: B12 VH
VL: B12 VL with H27Q, R50H
notes: IgG
B23: MYT2779 (antibody, V domains shown)
VH: B12 VH
VL: B12 VL with H27Q, N30H
notes: IgG
B24: MYT2785 (antibody, V domains shown)
VH: B12 VH
VL: B12 VL with H27Q, V51H
notes: IgG
B25: MYT2798 (antibody, V domains shown)
VH: B12 VH
VL: B12 VL with H27Q, Y96H
notes: IgG
B26: MYT2781 (antibody, V domains shown)
VH: B12 VH
VL: B12 VL with H27Q, Y32H
notes: IgG
B27: MYT2796 (antibody, V domains shown)
VH: B12 VH
VL: B12 VL with H27Q, F94H
notes: IgG
B28: MYT2787 (antibody, V domains shown)
VH: B12 VH
VL: B12 VL with H27Q, R53H
notes: IgG
B29: MYT2789 (antibody, V domains shown)
VH: B12 VH
VL: B12 VL with H27Q, V55H
notes: IgG
B30: MYT2780 (antibody, V domains shown)
VH: B12 VH
VL: B12 VL with H27Q, S31H
notes: IgG
B31: MYT2788 (antibody, V domains shown)
VH: B12 VH
VL: B12 VL with H27Q, L54H
notes: IgG
B32: MYT2794 (antibody, V domains shown)
VH: B12 VH
VL: B12 VL with H27Q, D92H
notes: IgG
B33: MYT2795 (antibody, V domains shown)
VH: B12 VH
VL: B12 VL with H27Q, A93H
notes: IgG
B34: MYT2793 (antibody, V domains shown)
VH: B12 VH
VL: B12 VL with H27Q, Y91H
notes: IgG
B35: MYT2791 (antibody, V domains shown)
VH: B12 VH
VL: B12 VL with H27Q, L89H
notes: IgG

Biological target: T1, CD123 Protein, His Tag, Acro …
Assay: BLI, IgG on anti-human Fc sensor, 50 nM CD123, pH 7.4 and pH 5.4
Text: We selected IMGN632 (Heavy chain SEQ ID NO: 1, Light chain SEQ ID NO: 2) as a CD123-binding monoclonal antibody for pH engineering via histidine scanning. Briefly, CDRs in the heavy chain were identified using the methods described by Kabat et al (Kabat et al. (1992) Sequences of Proteins of Immunological Interest, DIANE publishing) and IMGT (Lefranc M P (1999) “The IMGT unique numbering for Immunoglobulins, T cell receptors and Ig-like domains” The Immunologist 7, 132-136), and for each CDR, residues falling under either or both Kabat and IMGT CDR definitions were called as CDR residues. To generate pH-dependent sequence variants, individual amino acid residues within the heavy chain CDRs were systematically substituted with a histidine, one at a time (MYT1252-MYT1292). In cases where the starting CDR residue was a histidine, it was mutated to an alanine. Antibody variants with only one histidine or alanine mutation in a heavy chain CDR were generated by co-transfection of Expi293 cells with a) one heavy chain sequence variant, and b) the corresponding starting ABPC light chain using methods known to the art. After allowing for four days of protein expression, cell culture supernatants were collected, quantified by SDS-PAGE analysis (FIG. 1), and the pH dependence of the variant was evaluated using biolayer interferometry (BLI) on an Octet RED 384 instrument. For constructs MYT1252, MYT1254-MYT1287, and MYT1289-1292, 104, of cell culture supernatant was diluted into 1904, of 1× PBST pH 7.4. For MYT1253 and MYT1288 254, and 504, of cell culture supernatant was diluted into 1754, and 1504, respectively. […] The resulting diluted supernatants were then captured on an anti-human Fc sensor (Forte Bio). A baseline was established using 1× PBST (50 mM Potassium Phosphate Buffer+150 mM NaCl+0.05% Tween 20) pH 7.4, and the sensor was associated with 50 nM of CD123 (CD123 Protein, His Tag, Acro Biosciences Cat. No. ILA-H52H6, Lot No. 1741d-89CF1-KB) in 1×PBST pH 7.4 for 120 sec to generate an association curve. In the dissociation phase, the antibody-antigen complex on the sensor was exposed to 1× PBST pH 7.4 for 300-600 sec. Baseline, association, and dissociation were repeated using 1×PBST pH 5.4 throughout in a separate condition.

| Binder | binding result |
| --- | --- |
| B1 | binds |
| B2 | binds |
| B3 | binds |
| B4 | binds |
| B5 | binds |
| B6 | binds |
| B7 | binds |
| B8 | binds |
| B9 | binds |
| B10 | binds |
| B11 | binds |
| B12 | binds |
| B13 | binds |
| B14 | binds |
| B15 | binds |
| B16 | binds |
| B17 | binds |
| B18 | binds |

| Binder | binding result |
| --- | --- |
| B19 | binds |
| B20 | binds |
| B21 | binds |
| B22 | binds |
| B23 | binds |
| B24 | binds |
| B25 | binds |
| B26 | binds |
| B27 | binds |
| B28 | binds |
| B29 | binds |
| B30 | binds |
| B31 | binds |
| B32 | binds |
| B33 | binds |
| B34 | binds |
| B35 | binds |
